Positions count from the first letter of the chain named. In names and notes the source's numbering stands.
T1: ATP7B metal binding domains 3-4, wild type (WT-MBD3-4) (human, UniProt P35670 238-439)
T1 construct: The printed PCR primers encode a start at RPLSSAN and an end at TNPLGNH followed by a stop codon; Residues of the vector may remain after intein cleavage; also called ATP7B MBD3-4; ATP7B-MBD34; source: E. coli Origami 2, purified (chitin beads, intein self-cleavage with DTT)
T1 sequence: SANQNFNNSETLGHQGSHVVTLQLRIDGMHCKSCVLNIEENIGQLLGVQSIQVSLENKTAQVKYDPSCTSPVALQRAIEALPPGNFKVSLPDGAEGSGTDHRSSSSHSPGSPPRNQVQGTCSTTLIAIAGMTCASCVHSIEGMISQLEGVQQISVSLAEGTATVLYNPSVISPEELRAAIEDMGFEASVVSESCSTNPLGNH

B1: CueR metalloregulator of E. coli, wild type (WT-CueR) (natural protein, UniProt P0A9G4 1-135, looked up)
chain: MNISDVAKITGLTSKAIRFYEEKGLVTPPMRSENGYRTYTQQHLNELTLLRQARQVGFNLEESGELVNLFNDPQRHSADVKRRTLEKVAEIERHIEELQSMRDQLLALANACPGDDSADCPIIENLSGCCHHRAG
notes: No cleavage is described; source: E. coli BL21, purified (Ni-NTA agarose)
B2: CueR_C112S (natural protein, E. coli, UniProt P0A9G4 1-135, looked up)
chain: B1 chain with C112S
notes: E. coli CueR, same construct as m4, with C112S; source: E. coli BL21, purified (Ni-NTA agarose)
B3: CueR_C120S (natural protein, E. coli, UniProt P0A9G4 1-135, looked up)
chain: B1 chain with C120S
notes: E. coli CueR, same construct as m4, with C120S; source: E. coli BL21, purified (Ni-NTA agarose)
B4: CueR_C112S_C120S (natural protein, E. coli, UniProt P0A9G4 1-135, looked up)
chain: B1 chain with C112S, C120S
notes: E. coli CueR, same construct as m4, with C112S and C120S; source: E. coli BL21, purified (Ni-NTA agarose)
B5: Atox1 metallochaperone, wild type (WT-Atox1) (natural protein, human)
chain: MPKHEFSVDMTCGGCAEAVSRVLNKLGGVKYDIDLPNKKVCIESEHSMDTLLATLKKTGKTVSYLGLE
notes: Human Atox1 copper metallochaperone
B6: MBD3-4_C268S_C271S_C370S_C373S mutant of ATP7B (SER-MBD3-4) (domain or fragment, human)
chain: T1 sequence with C31S, C34S, C133S, C136S
notes: The methods describe only the wild-type construct; also called MBD3-4(Ser); source: expressed and purified as WT-MBD3-4 (E. coli Origami 2, chitin beads, intein self-cleavage)

Tests used:
[1] = target: the molecule itself; test: cross-linking; 0.6% glutaraldehyde, RT, 30 min, phosphate buffer (25 mM Na2HPO4, 150 mM NaCl, pH 8), CueR at 20 uM, with or without Cu(I) at a 1:3 ratio, read by SDS-PAGE
[2] = target: T1, ATP7B metal binding domains 3-4, wild …; test: cross-linking; 0.1% glutaraldehyde, RT, 30 min or overnight, phosphate buffer (25 mM Na2HPO4, 150 mM NaCl, pH 8), read by SDS-PAGE; MBD3-4 at 50 uM or increasing concentrations, Atox1 at 50 uM; with or without Cu(I) at different ratios; conditions: both partners purified
[3] = target: B6; test: as above; conditions: both partners purified
[4] = target: the molecule itself; test: as above

## B1
[1]
  stoichiometry N: 2

## B2
[1]
  binding result: binds

## B3
[1]
  binding result: binds

## B4
[1]
  binding result: binds

## B5
[2]
  binding result: binds
[3]
  binding result: binds

## B6
[4]
  binding result: binds

Reference: paper PMC6679193, “Unraveling the Impact of Cysteine-to-Serine Mutations on the Structural and Functional Properties of Cu(I)-Binding Proteins” (International Journal of Molecular Sciences, 2019)
